Source: article PMC4252516

Target: AbrBC, C-terminal multimerization domain of AbrB from Bacillus subtilis (residues 52-94) (Bacillus subtilis)
Assay: SEC

stoichiometry N: 2
Substance: AbrBC, C-terminal multimerization domain of AbrB from Bacillus subtilis (residues 52-94) (domain or fragment)
